The source of these data is patent US20090181009A1 (ARCA BIOPHARMA, published 2009).

Experiment [1] addresses T1, NTB-A Δ5 deletion construct (human, UniProt Q96DU3 22-64).
T1 construct: Expressed in 293 cells and read by flow cytometry
T1 chain: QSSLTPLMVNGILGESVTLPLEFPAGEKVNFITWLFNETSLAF
Kind of experiment: flow cytometry on 293 cells expressing the deletion construct.

Experiment [2] addresses T2, NTB-A Δ4 deletion construct (human, UniProt Q96DU3 22-94).
T2 construct: Expressed in 293 cells and read by flow cytometry
T2 sequence: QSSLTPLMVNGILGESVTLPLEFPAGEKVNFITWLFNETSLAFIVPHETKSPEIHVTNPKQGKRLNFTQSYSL
The experiment is described as above.

For experiment [3], the target named is T3, human NTB-A (full-length, on cells) (human, UniProt Q96DU3 22-332).
T3 sequence: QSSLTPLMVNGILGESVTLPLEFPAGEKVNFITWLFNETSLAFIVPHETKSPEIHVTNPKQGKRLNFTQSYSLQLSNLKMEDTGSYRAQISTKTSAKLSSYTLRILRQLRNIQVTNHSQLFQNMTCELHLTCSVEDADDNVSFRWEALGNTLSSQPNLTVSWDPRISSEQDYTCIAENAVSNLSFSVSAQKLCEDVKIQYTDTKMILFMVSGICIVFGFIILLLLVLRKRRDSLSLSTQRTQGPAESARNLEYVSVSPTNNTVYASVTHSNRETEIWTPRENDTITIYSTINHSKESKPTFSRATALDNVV
In words: cell-based or functional assay.

The target of experiment [4] is T4, NTB-A extracellular domain fused to a C-terminal tag of V5-His (NTB-A-ECD-V5His) (human).
T4 construct: Produced in HEK-293 cells; also called recombinant NTB-A protein; NTB-A V5-6His
T4 chain: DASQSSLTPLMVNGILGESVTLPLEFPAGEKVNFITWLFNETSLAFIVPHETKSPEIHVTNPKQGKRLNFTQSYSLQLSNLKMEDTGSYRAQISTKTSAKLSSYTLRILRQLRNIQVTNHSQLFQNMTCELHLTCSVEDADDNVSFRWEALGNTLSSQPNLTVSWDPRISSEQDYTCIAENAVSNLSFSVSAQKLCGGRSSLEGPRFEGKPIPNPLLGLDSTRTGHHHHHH
Kind of experiment: SPR (BIAcore), mAb captured by anti-mouse mAb, antigen in solution, 25° C. The procedure:
(§1) Kinetic rate constants (kₐ and kd) were determined using surface plasmon resonance and affinities (KD) were then calculated from the rate constants (kd/kₐ). Surface plasmon resonance was carried out on a BIAcore system (Biacore International AB, Uppsala, Sweden). […] Antigen was diluted to a starting concentration of 46 nM and tested for binding to the mAb samples using a 3-fold dilution series. Each of 5 concentrations was tested twice except the highest concentration which was tested 5 times in total, two times with a short dissociation of 300 seconds followed by three times with a dissociation of 60 minutes. The data sets from the long dissociation experiments were globally fit with the shorter […] experiments to determine binding constants for the interactions. The analysis was carried out in HBS, pH 7.4 buffer at 25° C. (Canziani et al, Anal. Biochem. 352:301-307 […]).

Experiment [5] concerns the target T4, NTB-A extracellular domain fused to a …. Kind of experiment: SPR (BIAcore), mAb captured by anti-mouse mAb, antigen in solution, 25° C.; KD = kd/ka. The procedure:
as §1

B1: anti-NTB-A monoclonal antibody 480.12 (antibody, mouse IgG2b, V domains shown)
VH: QIQLVQSGPELKKPGETVKISCKASGYTFTNFGMNWVKQAPGKGLKWMGWINTYSGEATYADDFKGRFAFSLETSASTAFLQISNLKNEDTATYFCARRGGTAEFDYWGQGTPLTVSSA
VL: EIVLTQSPTTVAASPGEKITITCSASSSISSNFLHWYQQKPGFSPKLLIYRTSKLASGVPGRFSGSGSGTSYSLTIGTMEAEDVATYYCQQGIYMPLTVGAGTKLELKRA
notes: Murine IgG2b from a hybridoma; also called ATCC Deposit No. PTA-7832
With B1, the binding result in experiment [1] and in experiment [2] was “no binding” in each case. Besides, the “EC50 of CDC on cells from CLL patients” value in experiment [3] was in the range of 9 to 15 ng/mL. In addition, in experiment [4], the dissociation rate constant (koff) was determined as 0.0005 s⁻¹. This molecule also displayed a kon in experiment [4] of 404000 M⁻¹ s⁻¹. The molecule further returned a Kd in experiment [5] of 1.25 nM.

B2: anti-NTB-A monoclonal antibody 994.1 (antibody, mouse IgG2b, V domains shown)
VH: QIQLVQSGPDLKNPGKTVKISCKASGYTFTNFGMNWVKQSPERGLKWMGWINTYNGKPTYADDFKGQFAFSLETSATTAYLQINNLKNEDTAAYFCAKRGGTVDFGYWGQGTTLTVSS
VL: EVVLTQSPTTMAASPGEKITVTCSASSPISSNFLHWYQQKPGFSPKLFIYRTSILASGVPARFSGSGSGTSFSLTIGAMEAEDVAAYYCQQGIYMPLTFGAGTKLELKR
notes: Murine IgG2b from a hybridoma; also called ATCC Deposit No. PTA-7831
With B2, the binding result in experiment [1] and in experiment [2] was “no binding” each time. The “EC50 of complement-dependent cytotoxicity (CDC) on CA46 cells” value in experiment [3] is approximately 10 ng/mL.
